Results published in article PMC2568859, “Hybrids of the bHLH and bZIP Protein Motifs Display Different DNA-Binding Activities In Vivo vs. In Vitro”.

Experiments:
ArntbHLH [1] = biological target: T1, ArntbHLH (Homo sapiens (isoform variant 3), UniProt P27540-2 65-130); experiment: fluorescence anisotropy; up to 1 uM monomeric protein; data not shown; Buffer B: 100 mM Tris pH 7.4, 150 mM NaCl, 1 mM EDTA, 200 mM guanidine-HCl, 20% glycerol, 0.1 mg/mL acetylated BSA, 100 uM bp calf thymus DNA; 1 nM duplex; overnight 4 C then 22 C. Buffer C: 100 mM Tris pH 7.4, 150 mM NaCl, 1 mM EDTA, 1.0 ug/mL poly dI-dC. Buffer A: phosphate pH 7.4, 150 mM NaCl, 2.7 mM KCl, 1 mM EDTA, 800 mM urea, 20% glycerol, …; details: protein: recombinant; chain copies: 2; label: 5' 6-FAM on one strand; 24-mer duplex
T1 sequence (P27540 other isoform, or with tags, fused parts or gaps): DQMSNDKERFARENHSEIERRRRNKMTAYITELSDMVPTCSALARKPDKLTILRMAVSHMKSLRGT

ArntbHLH-C/EBP [2] = biological target: T2, ArntbHLH-C/EBP (Homo sapiens (Arnt isoform variant 3) / …, UniProt P27540-2 65-130+=RIR+P05554:317-345, internal_change); experiment: as above; details: protein: recombinant; (pET-28A(+), TALON purified); chain copies: 2; label: 5' 6-FAM on one strand; 24-mer duplex
T2 sequence (P27540 other isoform, or with tags, fused parts or gaps): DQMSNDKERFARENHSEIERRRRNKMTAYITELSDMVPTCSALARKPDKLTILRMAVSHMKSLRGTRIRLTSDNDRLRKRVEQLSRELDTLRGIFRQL

ArntbHLH [3] = biological target: T1, ArntbHLH; experiment: fluorescence anisotropy; Buffer C (no additives, 1.0 ug/mL poly dI-dC); single isotherm, plateau not reached; Hill ~2; Buffer B: 100 mM Tris pH 7.4, 150 mM NaCl, 1 mM EDTA, 200 mM guanidine-HCl, 20% glycerol, 0.1 mg/mL acetylated BSA, 100 uM bp calf thymus DNA; 1 nM duplex; overnight 4 C then 22 C. Buffer C: 100 mM Tris pH 7.4, 150 mM NaCl, 1 mM EDTA, 1.0 ug/mL poly dI-dC. Buffer A: phosphate pH 7.4, 150 mM NaCl, …; details: protein: recombinant; chain copies: 2; label: 5' 6-FAM on one strand; 24-mer duplex
ArntbHLH-C/EBP [4] = biological target: T2, ArntbHLH-C/EBP; experiment: as above; details: protein: recombinant; (pET-28A(+), TALON purified); chain copies: 2; label: 5' 6-FAM on one strand; 24-mer duplex

Binder | binding result (ArntbHLH [1]) | binding result (ArntbHLH-C/EBP [2]) | Kd (ArntbHLH [3]) [nM] | Kd (ArntbHLH-C/EBP [4]) [nM]
nonspecific 24-mer duplex (dsDNA) DNA 1: TGCAGGAATTCCAAGGTGAAGGTT DNA 2: AACCTTCACCTTGGAATTCCTGCA | no binding | no binding | – | –
E-box 24-mer duplex (dsDNA) DNA 1: TGCAGGAATCACGTGATGAAGGTT DNA 2: AACCTTCATCACGTGATTCCTGCA | – | – | ~350 | ~350
